The record followed here is publication PMC6377630, “NapM enhances the survival of Mycobacterium tuberculosis under stress and in macrophages” (Communications Biology, 2019).

The subject of data set [1] is DnaA (Mycobacterium tuberculosis H37Ra). The experiment in a line: EMSA. The settings on record: pH and temperature not stated. On the technique in general: In EMSA bound probe runs differently from free probe, usually more slowly.
The test system of data set [2] is NapM (Mycobacterium tuberculosis H37Ra). The experiment in a line: EMSA. The settings on record: pH and temperature not stated.

Broadly, the Kd is the free concentration of one partner at which half of the binding sites on the other are occupied at equilibrium, for simple one-to-one binding. Read a high Kd as lower affinity. With oriC fragment, the Kd is 60.5 nM in data set [1] and 458 nM in data set [2].
